For assay [1], the target named is T1, human CLDN18.1 on cells (CHO-hCLDN18.1) (human, UniProt P56856 1-261).
T1 construct: whole, on cells; also called human Claudin18.1
Put plainly: flow cytometry, hybridoma supernatant on CHO-hCLDN18.1. A general note: A flow cytometer gives signals particle by particle.

Assay [2] has as its target T2, human Claudin18.2 protein (P50251802, GenScript) (human, UniProt P56856-2 1-261, limits assumed).
T2 construct: also called human CLDN18.2
Nature of the assay: SPR (Biacore T200), human Claudin18.2 amine-coupled to the chip, antibody 0-100 nM in the mobile phase, 1:1 model. The procedure: According to the manufacturer's instructions, human Claudin18.2 (GenScrip, P50251802) was coupled to the surface of a CMS chip (GE Healthcare, 29-1496-03) using the amino coupling kit (GE Healthcare, BR-1006-33), and the remaining activation sites were blocked by injection of 1 M ethanolamine after coupling. According to the manufacturer's instructions, the binding and dissociation between the antigen on the chip surface and antibodies in the mobile phase were determined by Biacore (GE Healthcare, T200) to obtain affinity and kinetic constants. The antibodies (0-100 nM) after gradient dilution flowed over the chip surface in an order from low to high concentrations, with the binding time of 180 s and the dissociation time of 600 s. Finally, the chip was regenerated using 10 mM Glycine pH 1.5 (GE Healthcare, BR-1003-54). Kinetic analysis of the data results were performed using Biacore T200 analysis software with a 1:1 binding model.
(In general: In SPR one partner is held on a chip, and binding of the other changes the refractive index at the surface.)

Where a chain is given by its changes, count along the chain named.

B1: 3G3 (antibody secreted by the hybridoma, culture supernatant) (antibody, V domains shown)
VH: QVQLQQSGPQLVRPGASVKISCKASGYSFTTYWMHWVKQRPGQGLEWIGLIDPSDSETRLNQKFKDKATLTVDKSSSTAYMRLSSPTSEDSAVYYCASNRWLLGWGQGTLVTVSS
VL: DIQMIQSPSSLTVTAGEKVTMSCKSSQSLLNSGNQKNYLTWYQQKPGQPPKLLIYWASTRESGVPDRFTGSGSGTDFTLTISSVQTEDLAVYYCQNDYSYPLTFGAGTKLEIK
In the case of B1, in assay [1], the binding result is recorded as “no binding”.

B2: 25C7 (antibody secreted by the hybridoma, culture supernatant) (antibody, V domains shown)
VH: EVMLVESGGGLVQPGGSRKLSCAASGFTFSDYGMAWVRQAPGKGPEWVAFINNLAYSIYYVDTVTGRFTISRENAKDTLYLEMSSLRSEDTALYYCARFTTGNVMDYWGQGTSVTVSS
VL: B1 VL with Q3V, I5T, S22T, S32G, A57S, S82T, T86A, D97S, A106S, I112L
Turning to B2, the binding result in assay [1] is “no binding”.

B3: 46F6 (antibody secreted by the hybridoma, culture supernatant) (antibody, V domains shown)
VH: QVQLKESGPGLVAPSQSLSITCTVSGFSLTDYGVSWIRQPPGKGLEWLGVMWGGGNTYYNSALKSRLSISKDNSKSQVFLKMNSLQSDDTAMYYCAKQRYGGNAMDYWGQGTSVTVSS
VL: B1 VL with I5T, K36R, K45I, D66N, T75A, D76E, D97S, S99F, L102F, I112L
As for B3, in assay [1], the binding result was “no binding”.

B4: 69H9 (antibody secreted by the hybridoma, culture supernatant) (antibody, V domains shown)
VH: EVQLQQSGPELMKPGASVKISCKATGYSFSSYNIHWVKQSHGKSLEWIGYIAPFNGDSRYNQKFKGKATVTVDKSSSTAYMHLSSLTSEDSAVYYCGRLNRGNSLDYWGQGTSLTVSS
VL: B1 VL with Q3V, I5T, L30F, K36R, T86A, V91F, D97N, S99I, I112L
B4: the binding result in assay [1] was “no binding”.

B5: 51H10 (antibody secreted by the hybridoma, culture supernatant) (antibody, V domains shown)
VH: EVQLQQSVPELVKPGASVRMSCKASGYTFTKYIIQWVKQKPGQGLEWIAYINPYNDDTKYNEKFKGKATLTSDKSASTAYMELSSLTSEDSAVYYCATTYYGNSFPNWGQGTLVTVSA
VL: B1 VL with Q3V, I5T, K18R, S22T, V84L, T86S, Y93F, Y100F, L102F, A106S
Regarding B5, the binding result in assay [1] is reported as “no binding”.

B6: HB37A6 (antibody secreted by the hybridoma, culture supernatant) (antibody, V domains shown)
VH: EVQLLDSGGGLVQPGGSLRLSCAASGFTFSSYVMSWVRQAPGKGLNWVSTISHSGGSTYYADSVKGRFTISRDNSKNTLYLQMNSLRAEDTAVYYCAIDAPYYDILTGYRYWGQGTLVTVSS
VL: not shown
For the molecule B6, in assay [1], the binding result is on record as “no binding”.

B7: Hz51H10 (antibody, human IgG1, kappa, V domains shown)
VH: QVQLVQSGAEVKKPGASVKVSCKASGYTFTKYIIQWVRQAPGQRLEWMGYINPYNDDTKYNEKFKGRVTITRDTSASTAYMELSSLRSEDMAVYYCARTYYGNSFPNWGQGTLVTVSS
VL: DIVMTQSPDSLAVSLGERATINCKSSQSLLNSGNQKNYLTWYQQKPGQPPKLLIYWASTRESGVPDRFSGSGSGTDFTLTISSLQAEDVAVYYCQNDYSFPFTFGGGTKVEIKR
In general, Kd refers to the constant that tells how readily two partners part at equilibrium. Usually koff stands for the first-order rate constant of dissociation. A higher koff goes with fast dissociation. In general, kon refers to a measure of how fast the partners come together. High values mean faster complex formation, low ones slower complex formation. In the case of B7, in assay [2], binding was put at a Kd of 1.94 nM, the koff came to 0.000631 s⁻¹ and the kon amounted to 325000 M⁻¹ s⁻¹.

B8: 59C1 (antibody secreted by the hybridoma, culture supernatant) (antibody, V domains shown)
VH: QVQLKESGPDLVKPSQSLSLTCTVTGYSITSGYGWNWIRQFPGNKLEWMGYIHFSGSTNYNPSLKSRISITRDTSKNQFFLQLNSVTTEDTATYYCARSGKGNAMDYWGQGTSVTVSS
VL: DIQMTQSPSSLTVTAGEKVTMSCKSSQSLLNSGNQKNYLTWYQQKPGQPPKLLIYWASTRESGVPDRFTGSGSGTDFTLTVINMQAEDLALYYCQNDYYFPFTFGSGTKLEIK
Take B8: in assay [1], the binding result is on record as “no binding”.

B9: 38F8 (antibody secreted by the hybridoma, culture supernatant) (antibody, V domains shown)
VH: EVQLVESGGGLVKPGGSLKLSCAASGFSFSDYGMHWVRQAPEKGLEWIAYINSGSRTLYYADTVKGRFTISRDNAKNTLFLQMTSLRSEETAMYYCTRNAYYGNAMDYWGQGTSVTVSS
VL: DIQMTQSPSSLTVTAGEKVTMSCKSSQSLLNSGNQRNYLTWYQQIPGQPPKLLIYWSSTRGSGVPDRFTGSGSGTDFTLTISSVQAEDLAVYFCQNVYYYPFTFGSGTRLEVK
As to B9, the binding result in assay [1] is on record as “no binding”.

B10: 14A5 (antibody secreted by the hybridoma, culture supernatant) (antibody, V domains shown)
VH: QVQLKESGPGLVAPSQSLSITCSVSGFSLNSYGVGWVRQPPGKGLEWLGVIWGDGSTNYHSVLISRLSIRKDNSKSQVFLKLNSLQTDDTATYYCAMITRGNAMDYWGQGTSVTVSS
VL: DIVMTQSPSSLTVTAGEKITMSCKSSQSLLNSGNQRNYLTWYQQKPGQTPKLLIYWASTRKSGVPDRFTGSGSGTDFTLTISSVQAEDLAVYSCQNNYLFPLTFGAGTKLELK
Take B10: the binding result in assay [1] is given as “no binding”.

B11: Hz38F8 (antibody, human IgG1, kappa, V domains shown)
VH: EVQLVESGGGLVQPGGSLRLSCAASGFSFSDYGMHWVRQAPGKGLEWVSYINSGSRTLYYADTVKGRFTISRDNAKNSLYLQMNSLRDEDTAVYYCARNAYYGNAMDYWGQGTLVTVSS
VL: DIVMTQSPDSLAVSLGERATINCKSSQSLLNSGNQRNYLTWYQQKPGQPPKLLIYWSSTRGSGVPDRFSGSGSGTDFTLTISSLQAEDVAVYYCQNVYYYPFTFGQGTRLEIKR
In assay [2], B11 registered a Kd of 0.314 nM, a koff of 9.97e-05 s⁻¹ and a kon of 318000 M⁻¹ s⁻¹.

B12: Hz46F6 (antibody, human IgG1, kappa, V domains shown)
VH: QVQLQESGPGLVKPSETLSLTCTVSGFSLTDYGVSWIRQPPGKGLEWIGVMWGGGNTYYNSALKSRVTISVDTSKNQFSLKLSSVTAADTAVYYCARQRYGGNAMDYWGQGTLVTVSS
VL: B11 VL with S57A, G61E, V97S, Y99F, Q106G, R109K, L110V
In assay [2], B12 displayed a Kd of 1.03 nM, a koff of 0.00015 s⁻¹ and a kon of 147000 M⁻¹ s⁻¹.

B13: Hz59C1 (antibody, human IgG1, kappa, V domains shown)
VH: QVQLQESGPGLVKPSETLSLTCTVSGYSITSGYGWNWIRQPPGKGLEWIGYIHFSGSTNYNPSLKSRVTISVDTSKNQFSLKLSSVTAADTAVYYCARSGKGNAMDYWGQGTLVTVSS
VL: B11 VL with R36K, S57A, G61E, V97D, Y100F, Q106G, R109K, L110V
In assay [2], B13 registered a Kd of 1.75 nM, a koff of 0.000433 s⁻¹ and a kon of 248000 M⁻¹ s⁻¹.

B14: Hz14A5 (antibody, human IgG1, kappa, V domains shown)
VH: QVQLQESGPGLVKPSETLSLTCTVSGFSLNSYGVGWIRQPPGKGLEWIGVIWGDVSTNYHSVLISRVTISKDTSKNQVSLKLSSVTAADTAVYYCARITRGNAMDYWGQGTLVTVSS
VL: B11 VL with S57A, G61K, V97N, Y99L, Y100F, F102L, Q106G, R109K, L110V
In the case of B14, in assay [2], the equilibrium dissociation constant (Kd) came to 0.49 nM, the koff amounted to 0.000208 s⁻¹ and the kon is 424000 M⁻¹ s⁻¹.

B15: Hz3G3 (antibody, human IgG1, kappa, V domains shown)
VH: QVQLVQSGAEVKKPGASVKVSCKASGYSFTTYWMHWVRQAPGQGLEWMGLIDPSDSETRLNQKFKDRVTMTVDTSTSTVYMELSSLRSEDTAVYYCASNRWLLGWGQGTLVTVSS
VL: B11 VL with R36K, S57A, G61E, V97D, Y99S, F102L, R109K
Regarding B15, in assay [2], binding was characterised by a dissociation constant (Kd) of 14.2 nM, the koff turned out to be 0.000799 s⁻¹ and the kon was 56500 M⁻¹ s⁻¹.

B16: Hz25C7 (antibody, human IgG1, kappa, V domains shown)
VH: EVQLVESGGGLVQPGGSLRLSCAASGFTFSDYGMAWVRQAPGKGLEWVAFINNLAYSIYYVDTVTGRFTISRDNAKNSLYLQMNSLRAEDTAVYYCARFTTGNVMDYWGQGTLVTVSS
VL: B11 VL with N31Q, S32G, R36K, G61E, V97S, Y99S, F102L, Q106G, R109K, L110V
With B16, in assay [2], the Kd stood at 9.84 nM, the koff is 0.00114 s⁻¹ and the kon was found to be 116000 M⁻¹ s⁻¹.

The values are drawn from patent US20230235047A1 (Innovent, published 2023).
